Measured values taken from IntAct's records for PubMed 20947020.

B1: AP-2 complex subunit mu (Rattus norvegicus (Rat)), P84092 (parent)
chain: MIGGLFIYNHKGEVLISRVYRDDIGRNAVDAFRVNVIHARQQVRSPVTNIARTSFFHVKRSNIWLAAVTKQNVNAAMVFEFLYKMCDVMAAYFGKISEENIKNNFVLIYELLDEILDFGYPQNSETGALKTFITQQGIKSQHQTKEEQSQITSQVTGQIGWRREGIKYRRNELFLDVLESVNLLMSPQGQVLSAHVSGRVVMKSYLSGMPECKFGMNDKIVIEKQGKGTADETSKSGKQSIAIDDCTFHQCVRLSKFDSERSISFIPPDGEFELMRYRTTKDIILPFRVIPLVREVGRTKLEVKVVIKSNFKPSLLAQKIEVRIPTPLNTSGVQVICMKGKAKYKASENAIVWKIKRMAGMKESQISAEIELLPTNDKKKWARPPISMNFEVPFAPSGLKVRYLKVFEPKLNYSDHDVIKWVRYIGRSGIYETRC
partner: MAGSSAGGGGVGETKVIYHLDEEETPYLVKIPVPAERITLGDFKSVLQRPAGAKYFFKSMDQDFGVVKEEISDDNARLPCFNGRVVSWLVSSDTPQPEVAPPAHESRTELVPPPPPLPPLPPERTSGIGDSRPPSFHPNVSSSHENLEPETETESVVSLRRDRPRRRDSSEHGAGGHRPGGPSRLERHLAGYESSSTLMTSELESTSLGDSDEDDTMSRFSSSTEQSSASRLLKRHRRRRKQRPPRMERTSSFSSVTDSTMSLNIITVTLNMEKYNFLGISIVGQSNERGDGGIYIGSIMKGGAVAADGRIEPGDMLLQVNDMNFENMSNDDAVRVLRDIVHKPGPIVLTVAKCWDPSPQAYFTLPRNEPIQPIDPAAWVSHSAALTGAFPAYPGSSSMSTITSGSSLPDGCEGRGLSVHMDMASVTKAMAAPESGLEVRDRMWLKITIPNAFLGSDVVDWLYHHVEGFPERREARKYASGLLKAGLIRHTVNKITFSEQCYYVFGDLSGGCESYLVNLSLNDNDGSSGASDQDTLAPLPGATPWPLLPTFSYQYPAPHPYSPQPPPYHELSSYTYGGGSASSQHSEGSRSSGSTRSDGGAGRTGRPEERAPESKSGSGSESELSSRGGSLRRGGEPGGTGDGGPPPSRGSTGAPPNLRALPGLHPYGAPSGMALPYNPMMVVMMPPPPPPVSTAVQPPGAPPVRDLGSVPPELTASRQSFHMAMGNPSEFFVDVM
B2: Segment polarity protein dishevelled homolog DVL-2 (Mus musculus), Q60838 (parent)
chain: B1 partner

Variants of: B1
Conditions: with dvl2_mouse Dvl2, Q60838

Variant | effect of a mutation on the interaction
K213D;K405D | decreasing interaction
E211A;K213D;K405D | decreasing interaction
E211A;K213D;K405D;F407A | decreasing interaction
W421A | disrupting interaction

Variants of: B2
Conditions: with ap2m1_rat Ap2m1, P84092

Variant | effect of a mutation on the interaction
D441K;N451A;R489A | decreasing interaction
K446M | decreasing interaction strength
Y561A | disrupting interaction
D441K | decreasing interaction
R489A | decreasing interaction

Continued, values first:

effect of a mutation on the interaction | Variant
decreasing interaction strength | K446A
decreasing interaction | D441K;N451A
decreasing interaction | D441K;R489A
decreasing interaction | N451A

Variants of: B2
Conditions: with ap2b1_bovin AP2B1, P63009
Chain of ap2b1_bovin AP2B1, P63009 (P63009 whole entry): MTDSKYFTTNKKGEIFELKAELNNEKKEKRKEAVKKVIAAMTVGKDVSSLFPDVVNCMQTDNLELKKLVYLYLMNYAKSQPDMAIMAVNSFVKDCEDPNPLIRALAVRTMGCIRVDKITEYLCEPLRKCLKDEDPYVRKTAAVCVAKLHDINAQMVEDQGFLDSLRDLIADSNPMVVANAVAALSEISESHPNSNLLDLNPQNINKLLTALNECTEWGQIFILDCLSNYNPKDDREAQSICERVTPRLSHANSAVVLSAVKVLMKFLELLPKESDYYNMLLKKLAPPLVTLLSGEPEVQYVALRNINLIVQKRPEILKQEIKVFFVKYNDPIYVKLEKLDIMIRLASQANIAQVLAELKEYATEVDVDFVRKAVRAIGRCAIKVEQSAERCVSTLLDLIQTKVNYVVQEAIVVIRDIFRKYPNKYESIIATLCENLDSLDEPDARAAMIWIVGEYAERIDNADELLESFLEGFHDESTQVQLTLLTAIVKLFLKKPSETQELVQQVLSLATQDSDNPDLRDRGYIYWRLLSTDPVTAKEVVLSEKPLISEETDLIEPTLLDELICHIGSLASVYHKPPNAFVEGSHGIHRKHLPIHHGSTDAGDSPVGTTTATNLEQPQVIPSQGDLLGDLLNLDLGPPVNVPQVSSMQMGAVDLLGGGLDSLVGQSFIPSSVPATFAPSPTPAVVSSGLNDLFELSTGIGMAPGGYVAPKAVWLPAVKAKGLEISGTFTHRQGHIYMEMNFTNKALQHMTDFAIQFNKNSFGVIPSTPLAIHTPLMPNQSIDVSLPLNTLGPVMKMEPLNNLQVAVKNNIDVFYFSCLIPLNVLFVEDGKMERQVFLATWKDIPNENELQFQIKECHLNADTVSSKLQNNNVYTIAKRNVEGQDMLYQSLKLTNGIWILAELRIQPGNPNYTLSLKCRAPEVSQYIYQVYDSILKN

Variant | effect of a mutation on the interaction
Y561A | disrupting interaction
